Experimental data taken from the supplement of paper PMC10724198.
± gives the standard deviation of the averaged measurements.

test system: Saccharomyces cerevisiae; assay: protein stability index of tFT-peptide fusion (C-terminal peptide) (PSI (0-1 scale)); higher = more stable (slower turnover); details: genetic background: das1 deletion; temperature: 30 C
Description: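 MPS profiling in S. cerevisiae of the tFT-X12 degron library: putative degron peptides plus stable controls, 12 aa, fused to the C-terminus of a sfGFP-mCherry timer. Cells are FACS-sorted into 8 mCherry/sfGFP bins and deep-sequenced. PSI runs from 0 (unstable) to 1 (stable). Backgrounds are wild type, das1Δ and doa10Δ at 30 °C, and wild type, das1Δ, cdc34-1 and cdc53-1 at 37 °C; 2-3 technical replicates each.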
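Also: PSI is a weighted mean of sequencing reads over stability bins, variants kept only with over 10 reads, mCherry proximal and sfGFP distal, peptide attached via GGGS linker.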

Compared with AKVSFYALARQY, ALEFLLLVCRRL is lower in protein stability index: 0.636 ± 0.018 for the first, 0.457 ± 0.011 for the second.

ALFLYNCVVVTD and ALLYIVVGWSLS are within error of each other in protein stability index: 0.146 ± 0.04 for the first, 0.167 ± 0.026 for the second.

Compared with ALRLVAFFWVPG, ALTLSYAIKLKV is lower in protein stability index: 0.427 ± 0.025 for the first, 0.313 ± 0.032 for the second.

First: AMFQLRLLVGSV
Second: APASFRVLISAF
The protein stability index of the first is higher: 0.386 ± 0.037 for the first, 0.118 ± 0.035 for the second.

Going from APPRSLSPPLLS to ARFFFFCVGILI, the protein stability index falls from 0.672 ± 0.022 to 0.339 ± 0.066.

Compared with ARKWVAVTVTLW, ARVSLSFVSVSA is higher in protein stability index: 0.187 ± 0.036 for the first, 0.279 ± 0.03 for the second.

ARWNTDRRRRQL and ASIEVGNVIKQM are within error of each other in protein stability index: 0.688 ± 0.045 for the first, 0.627 ± 0.036 for the second.

Compared with ASSSPAPYAPYT, ATAVMILCFRWC is lower in protein stability index: 0.647 ± 0.031 for the first, 0.329 ± 0.041 for the second.

AVLAALVSTLAG and AVPTSPYSLIVY are within error of each other in protein stability index: 0.383 ± 0.024 for the first, 0.367 ± 0.0063 for the second.

AWGSWTLCVAVH and AWWMALAVPIVA are within error of each other in protein stability index: 0.0888 ± 0.043 for the first, 0.103 ± 0.025 for the second.

CCFVGLRYVLWV and CCLGVIASFIVW are within error of each other in protein stability index: 0.345 ± 0.029 for the first, 0.284 ± 0.036 for the second.

First: CFLLSYRWVFLC
Second: CFSIPLVILNVL
The protein stability index of the first is lower: 0.177 ± 0.033 for the first, 0.431 ± 0.018 for the second.

Compared with CFWLLSSLLLFL, CFYVGFLGYFVF is lower in protein stability index: 0.429 ± 0.017 for the first, 0.357 ± 0.04 for the second.

Going from CGLGKVLGWRWV to CGPLLVTLVLSM, the protein stability index falls from 0.64 ± 0.015 to 0.305 ± 0.032.

Going from CLAWWLGRVWVC to CLILGLFSLIFL, the protein stability index rises from 0.219 ± 0.027 to 0.452 ± 0.018.

First: CLRVSFFFWLFA
Second: CRFYIRITRRYS
The protein stability index of the first is lower: 0.392 ± 0.041 for the first, 0.541 ± 0.041 for the second.

Compared with CRLLVFGLCVGA, CRWHLRIVRGLM is higher in protein stability index: 0.228 ± 0.046 for the first, 0.593 ± 0.01 for the second.

CSKGLSILLLLL and CSRDVFLFIKFL are within error of each other in protein stability index: 0.469 ± 0.021 for the first, 0.457 ± 0.0096 for the second.

Compared with CSSLIMIITCVN, CTESVYIIRFML is higher in protein stability index: 0.244 ± 0.031 for the first, 0.568 ± 0.025 for the second.

First: CVEACVWYNAGL
Second: CVILVVISGLLG
The protein stability index of the first is higher: 0.662 ± 0.024 for the first, 0.199 ± 0.039 for the second.

Going from CVPGPRWWYHSA to CWFGLVSLFWVV, the protein stability index falls from 0.685 ± 0.031 to 0.421 ± 0.04.

Going from FGWLELVWFDLG to GIFYVRTIWSCG, the protein stability index falls from 0.525 ± 0.03 to 0.192 ± 0.014.

First: GRWGGYVGREWG
Second: GSMGGVGVLGGD
The protein stability index of the first is lower: 0.442 ± 0.0056 for the first, 0.467 ± 0.0086 for the second.

Going from IGWGGGTWVKMG to LEDVLFVMVINI, the protein stability index falls from 0.654 ± 0.0079 to 0.308 ± 0.038.

LLSLLLDPLLCL and SDGGVVRGGCRG are within error of each other in protein stability index: 0.522 ± 0.026 for the first, 0.519 ± 0.061 for the second.

Going from SVYLYFQVVAYG to VWVVRGFLGFGG, the protein stability index rises from 0.0877 ± 0.049 to 0.4302 ± 0.0014.

same assay, conditions: genetic background: das1 deletion; temperature: 37 C

ACACFWVVWVGW and ACEFRFFYVFRC are within error of each other in protein stability index: 0.4309 ± 0.0018 for the first, 0.425 ± 0.015 for the second.

Compared with AERPVLIIIEFG, AFFCTLCLFLVS is lower in protein stability index: 0.5315 ± 0.0052 for the first, 0.496 ± 0.012 for the second.

Going from AFLCVFGFCFFV to AFRLRHEIISLM, the protein stability index rises from 0.482 ± 0.026 to 0.744 ± 0.037.

Going from AGGLLIGSVGVG to AISLPVEVLAFS, the protein stability index falls from 0.468 ± 0.0066 to 0.438 ± 0.022.

Going from AKVSFYALARQY to ALEFLLLVCRRL, the protein stability index falls from 0.726 ± 0.016 to 0.6018 ± 0.0059.

ALFLYNCVVVTD and ALLYIVVGWSLS are within error of each other in protein stability index: 0.25 ± 0.015 for the first, 0.285 ± 0.025 for the second.

Going from ALRLVAFFWVPG to ALTLSYAIKLKV, the protein stability index falls from 0.5392 ± 0.0037 to 0.4594 ± 0.00077.

Compared with AMFQLRLLVGSV, APASFRVLISAF is lower in protein stability index: 0.5436 ± 0.0049 for the first, 0.102 ± 0.013 for the second.

Compared with APPRSLSPPLLS, ARFFFFCVGILI is lower in protein stability index: 0.71 ± 0.0073 for the first, 0.503 ± 0.046 for the second.

Going from ARKWVAVTVTLW to ARVSLSFVSVSA, the protein stability index rises from 0.3519 ± 0.00085 to 0.494 ± 0.007.

Compared with ARWNTDRRRRQL, ASIEVGNVIKQM is higher in protein stability index: 0.7022 ± 0.0017 for the first, 0.7202 ± 0.0061 for the second.

Compared with ASSSPAPYAPYT, ATAVMILCFRWC is lower in protein stability index: 0.76 ± 0.029 for the first, 0.526 ± 0.013 for the second.

Going from AVLAALVSTLAG to AVPTSPYSLIVY, the protein stability index falls from 0.5888 ± 0.0053 to 0.54146 ± 0.00044.

AWGSWTLCVAVH and AWWMALAVPIVA are within error of each other in protein stability index: 0.0713 ± 0.01 for the first, 0.0676 ± 0.013 for the second.

Going from CCFVGLRYVLWV to CCLGVIASFIVW, the protein stability index falls from 0.531 ± 0.0061 to 0.455 ± 0.024.

Compared with CFLLSYRWVFLC, CFSIPLVILNVL is higher in protein stability index: 0.2381 ± 0.0016 for the first, 0.531 ± 0.025 for the second.

CFWLLSSLLLFL and CFYVGFLGYFVF are within error of each other in protein stability index: 0.5398 ± 0.0016 for the first, 0.55 ± 0.027 for the second.

First: CGLGKVLGWRWV
Second: CGPLLVTLVLSM
The protein stability index of the first is higher: 0.745 ± 0.023 for the first, 0.5011 ± 0.0028 for the second.

Going from CLAWWLGRVWVC to CLILGLFSLIFL, the protein stability index rises from 0.364 ± 0.0011 to 0.561 ± 0.011.

CLRVSFFFWLFA and CRFYIRITRRYS are within error of each other in protein stability index: 0.553 ± 0.0073 for the first, 0.584 ± 0.032 for the second.

Going from CRLLVFGLCVGA to CRWHLRIVRGLM, the protein stability index rises from 0.419 ± 0.0084 to 0.6603 ± 0.0027.

Going from CSKGLSILLLLL to CSRDVFLFIKFL, the protein stability index falls from 0.634 ± 0.028 to 0.5679 ± 0.002.

Going from CSSLIMIITCVN to CTESVYIIRFML, the protein stability index rises from 0.4 ± 0.017 to 0.662 ± 0.02.

Going from CVEACVWYNAGL to CVILVVISGLLG, the protein stability index falls from 0.774 ± 0.027 to 0.3938 ± 0.0035.

Compared with CVPGPRWWYHSA, CWFGLVSLFWVV is lower in protein stability index: 0.775 ± 0.011 for the first, 0.576 ± 0.0068 for the second.

Compared with FGWLELVWFDLG, GIFYVRTIWSCG is lower in protein stability index: 0.703 ± 0.033 for the first, 0.3813 ± 0.0011 for the second.

First: GRWGGYVGREWG
Second: GSMGGVGVLGGD
The protein stability index of the first is lower: 0.482 ± 0.017 for the first, 0.5571 ± 0.0043 for the second.

Going from IGWGGGTWVKMG to LEDVLFVMVINI, the protein stability index falls from 0.769 ± 0.015 to 0.549 ± 0.035.

LLSLLLDPLLCL and SDGGVVRGGCRG are within error of each other in protein stability index: 0.634 ± 0.015 for the first, 0.714 ± 0.1 for the second.

Compared with SVYLYFQVVAYG, VWVVRGFLGFGG is higher in protein stability index: 0.198 ± 0.02 for the first, 0.457 ± 0.012 for the second.

same assay, conditions: genetic background: doa10 deletion; temperature: 30 C

Compared with ACACFWVVWVGW, ACEFRFFYVFRC is higher in protein stability index: 0.217 ± 0.021 for the first, 0.278 ± 0.0034 for the second.

AERPVLIIIEFG and AFFCTLCLFLVS are within error of each other in protein stability index: 0.296 ± 0.015 for the first, 0.3064 ± 0.002 for the second.

Going from AFLCVFGFCFFV to AFRLRHEIISLM, the protein stability index falls from 0.285 ± 0.008 to 0.136 ± 0.0049.

First: AGGLLIGSVGVG
Second: AISLPVEVLAFS
The protein stability index of the first is higher: 0.4523 ± 0.0042 for the first, 0.255 ± 0.025 for the second.

AKVSFYALARQY and ALEFLLLVCRRL are within error of each other in protein stability index: 0.323 ± 0.0065 for the first, 0.31 ± 0.026 for the second.

ALFLYNCVVVTD and ALLYIVVGWSLS are within error of each other in protein stability index: 0.132 ± 0.011 for the first, 0.12 ± 0.019 for the second.

First: ALRLVAFFWVPG
Second: ALTLSYAIKLKV
The protein stability index of the first is higher: 0.415 ± 0.035 for the first, 0.248 ± 0.0066 for the second.

Compared with AMFQLRLLVGSV, APASFRVLISAF is lower in protein stability index: 0.36 ± 0.016 for the first, 0.0642 ± 0.012 for the second.

APPRSLSPPLLS was tested, and the protein stability index was 0.679 ± 0.0075.
